The values that follow are results of earlier work, collected in patent US6689582B1, “Polynucleotide molecules encoding proteins having proteinase inhibitor activity” (Bayer Pharmaceuticals Corporation, priority 1999, dated 2004).

Broadly, the Ki is the dissociation constant of the complex between target and ligand, obtained from inhibition or displacement.

The target of data set [1] is plasma kallikrein (Homo sapiens, UniProt P03952).
Data set [2] has as its target T1, cathepsin G (Homo sapiens, UniProt P08311).
T1 sequence (P08311 21-255): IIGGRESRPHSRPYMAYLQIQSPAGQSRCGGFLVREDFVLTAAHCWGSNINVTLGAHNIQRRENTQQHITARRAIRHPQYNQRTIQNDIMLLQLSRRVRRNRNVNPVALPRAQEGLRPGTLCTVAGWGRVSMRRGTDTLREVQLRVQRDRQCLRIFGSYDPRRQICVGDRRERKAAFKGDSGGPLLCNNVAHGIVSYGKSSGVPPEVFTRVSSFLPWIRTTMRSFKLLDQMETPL

Data set [3] deals with T2, leukocyte elastase (Homo sapiens, UniProt P08246).
T2 sequence (P08246 30-267): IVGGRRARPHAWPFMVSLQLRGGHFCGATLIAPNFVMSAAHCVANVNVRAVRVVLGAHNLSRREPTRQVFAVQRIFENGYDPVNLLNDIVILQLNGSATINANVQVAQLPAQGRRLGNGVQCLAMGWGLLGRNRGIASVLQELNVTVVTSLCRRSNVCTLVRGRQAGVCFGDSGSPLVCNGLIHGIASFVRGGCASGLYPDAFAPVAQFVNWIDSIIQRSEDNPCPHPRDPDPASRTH

The target in data set [4] is thrombin (Homo sapiens, UniProt P00734).
Data set [5] has as its target T3, proteinase 3 (Homo sapiens, UniProt P24158).
T3 sequence (P24158 28-256): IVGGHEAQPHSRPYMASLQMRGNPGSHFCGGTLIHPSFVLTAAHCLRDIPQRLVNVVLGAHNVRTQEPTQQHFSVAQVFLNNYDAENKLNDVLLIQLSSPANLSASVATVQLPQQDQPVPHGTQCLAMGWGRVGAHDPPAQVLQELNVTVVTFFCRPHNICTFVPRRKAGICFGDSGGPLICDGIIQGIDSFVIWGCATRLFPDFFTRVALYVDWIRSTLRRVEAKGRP

Where two headings read alike, the source gives them in different places. Ends that are not written are not given here.

plasma kallikrein, sequence (P03952 20-638, species assumed): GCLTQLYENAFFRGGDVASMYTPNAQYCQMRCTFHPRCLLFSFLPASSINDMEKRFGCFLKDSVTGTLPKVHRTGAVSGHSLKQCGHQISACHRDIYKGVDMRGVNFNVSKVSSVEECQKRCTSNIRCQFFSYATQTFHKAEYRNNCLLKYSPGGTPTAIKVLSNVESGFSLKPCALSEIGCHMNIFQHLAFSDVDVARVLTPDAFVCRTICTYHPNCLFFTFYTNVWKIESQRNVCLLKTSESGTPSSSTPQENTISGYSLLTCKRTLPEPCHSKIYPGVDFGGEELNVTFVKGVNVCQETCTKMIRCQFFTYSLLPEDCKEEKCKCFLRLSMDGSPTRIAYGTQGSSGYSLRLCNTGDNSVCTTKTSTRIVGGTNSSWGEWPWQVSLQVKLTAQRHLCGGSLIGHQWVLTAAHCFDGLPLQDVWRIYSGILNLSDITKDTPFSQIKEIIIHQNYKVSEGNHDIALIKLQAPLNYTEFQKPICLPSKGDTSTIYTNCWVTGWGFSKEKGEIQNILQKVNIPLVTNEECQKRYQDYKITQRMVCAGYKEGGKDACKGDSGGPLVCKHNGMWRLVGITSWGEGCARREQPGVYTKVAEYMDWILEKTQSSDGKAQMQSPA

Regarding “APP KD variant (T11D, P13H, M17A, I18H, S19P and F34Y): phage display derived plasma kallikrein inhibitor differing from APP KD at 6 key residues (VREVCSEQAEDGHCRAAHPRWYFDVTEGKCAPFYYGGCGGNRNNFDTEEYCMAVC; ends and bridges not checked; cysteine pairing not given here)”, in data set [1], the Ki is roughly 0.015 nM and the “increase in binding affinity to plasma kallikrein compared to wild-type APP KD” value is “more than 10,000 fold”. Consider “Alpha-1-proteinase: serpin family serine proteinase inhibitor, major serum inhibitor of elastase and cathepsin G”, for which the “inhibition of cathepsin G (in words)” value is recorded as “inhibit” in data set [2] and “potent inhibitor” in data set [2] (listed as Alpha 1-proteinase inhibitor). Regarding “alpha 1-proteinase inhibitor [Arg358]: P1 variant of alpha 1-proteinase inhibitor”, in data set [3], the “inhibition of leukocyte elastase (in words)” value is reported as “not”. For the same molecule, in data set [4], the “inhibition of thrombin (in words)” value was “potent inhibitor”. “elafin: member of the mucous proteinase inhibitor family (AQEPVKGPVSTKPGSCPIILIRCAMLNPPNRCLKDTDCPGIKKCCEGSCGMACFVPQ; ends and bridges not checked; cysteine pairing not given here; UniProt P19957 61-117, looked up)”: the “inhibition of proteinase 3 (in words)” value in data set [5] is recorded as “not”.

B1: placental bikunin: human Kunitz family inhibitor, potent inhibitor of plasmin (protein, UniProt O43291 28-252, looked up)
Kunitz-type protease …: ADRERSIHDFCLVSKVVGRCRASMPRWWYNVTDGSCQLFVYGGCDGNSNNYLTKEECLKKCATVTENATGDLATSRNAADSSVPSAPRRQDSEDHSSDMFNYEEYCTANAVTGPCRASFPRWYFDVERNSCNNFIYGGCRGNKNSYRSEEACMLRCFRQQENPPLPLGSKVVVLAGLFVMVLILFLGASMVYLIRVARRNQERALRTVWSSGDDKEQLVKNTYVL
In the case of B1, the “inhibition of leukocyte elastase (in words)” value in data set [3] was “not”.

B2: SLPI: member of the mucous proteinase inhibitor family (protein, UniProt P03973 26-132, looked up)
Antileukoproteinase: SGKSFKAGVCPPKKSAQCLRYKKPECQSDWQCPGKKRCCPDTCGIKCLDPVDTPNPTRRKPGKCPVTYGQCLMLNPPNFCEMDGQCKRDLKCCMGMCGKSCVSPVKA
Take B2: the “inhibition of proteinase 3 (in words)” value in data set [5] is recorded as “not”.

B3: Alpha-1-antichymotrypsin: serpin family proteinase inhibitor, physiological cathepsin G inhibitor (protein, UniProt P01011 24-423, looked up)
Alpha-1-antichymotrypsin: HPNSPLDEENLTQENQDRGTHVDLGLASANVDFAFSLYKQLVLKAPDKNVIFSPLSISTALAFLSLGAHNTTLTEILKGLKFNLTETSEAEIHQSFQHLLRTLNQSSDELQLSMGNAMFVKEQLSLLDRFTEDAKRLYGSEAFATDFQDSAAAKKLINDYVKNGTRGKITDLIKDLDSQTMMVLVNYIFFKAKWEMPFDPQDTHQSRFYLSKKKWVMVPMMSLHHLTIPYFRDEELSCTVVELKYTGNASALFILPDQDKMEEVEAMLLPETLKRWRDSLEFREIGELYLPKFSISRDYNLNDILLQLGIEEAFTSKADLSGITGARNLAVSQVVHKAVLDVFEEGTEASAATAVKITLLSALVETRTIVRFNRPFLMIIVPTDTQNIFFMSKVTNPKQA
For the molecule B3, in data set [5], the “inhibition of proteinase 3 (in words)” value was “not”.
